# Test system: TO-3-N3 (biotin conjugate)
# Assay: pull-down binding Z-score (relative to library population); higher = stronger binding
# Conditions: RNA library: Library-2
# Summary of the method: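 Cy5- or Cy3-end-labelled RNA library (1 μg) was heat-folded in phosphate/NaCl/KCl buffer and incubated 60 min at 25 °C with streptavidin beads carrying 100 pmol biotin-conjugated small molecule. After three washes, bound RNA was eluted in hot SDS and hybridised 20 h at 55.5 °C to a DNA barcode microarray. Binding was scored by subtracting a beads-only control, averaging barcoded replicate probes after dropping highest and lowest, and converting to a Z-score against library mean and standard deviation.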
row,Sequence,pull-down binding Z-score
1,GGGAAAGAAGUCCU [IAV_invivo_HA_4_Motif_8+IAV_invivo_HA_4_Motif_8],-0.398
2,GGGAAGAACACC [IAV_invivo_M1_M2_7_Motif_3+IAV_invivo_M1_M2_7_Motif_3],1.13
3,GGGAAGGCGAAAGACC [IAV_invivo_PA_3_Motif_21+IAV_invivo_PA_3_Motif_21],0.143
4,GGGAAUAUAAUCUC [IAV_invivo_NA_6_Motif_2+IAV_invivo_NA_6_Motif_2],1.52
5,GGGACUGAGAAUUAGCUCAUCCU [IAV_invivo_PB2_1_Motif_14+IAV_invivo_PB2_1_Motif_14],-0.573
6,GGGACUUAUGAUUAUCCC [IAV_invivo_HA_4_Motif_18+IAV_invivo_HA_4_Motif_18],0.293
7,GGGAGAGACGAACAGUCGAUUGCC [IAV_invivo_PB2_1_Motif_17+IAV_invivo_PB2_1_Motif_17],-0.434
8,GGGAGAUAACAUUCC [IAV_invivo_M1_M2_7_Motif_7+IAV_invivo_M1_M2_7_Motif_7],-0.149
9,GGGAGAUUAAUGGUCCU [IAV_invivo_PB2_1_Motif_25+IAV_invivo_PB2_1_Motif_25],0.341
10,GGGAGCAAACCC [IAV_invivo_PB1_2_Motif_31+IAV_invivo_PB1_2_Motif_31],-0.179
11,GGGAGCUAUAAACAGCAGUCUCCC [IAV_invivo_HA_4_Motif_12+IAV_invivo_HA_4_Motif_12],0.403
12,GGGAGUCUUCGAGCUCUC [IAV_invivo_NP_5_Motif_24+IAV_invivo_NP_5_Motif_24],-0.194
13,GGGAUUAUCCU,-0.811
14,GGGCAAGCUGUCUCAAAUGUCC [IAV_invivo_PA_3_Motif_10+IAV_invivo_PA_3_Motif_10],-0.508
15,GGGCCACUGCCAGAAGACAAUGAACCAAGUGGUUAUGCCC [IAV_invivo_PB1_2_Motif_5+IAV_invivo_PB1_2_Motif_5],-0.323
16,GGGCCUCCCUGUUCUCAGCGGUCC [IAV_invivo_PA_3_Motif_11+IAV_invivo_PA_3_Motif_11],-0.00636
17,GGGCUAGAUUCCC [DMSMaPseq_invitro_SARS-CoV-2_Motif_228],-0.623
18,GGGCUCAGAAUAUGACUAUGUCAUAUUCACUCAAACCACUGAAACAGCUC [SHAPE_invitro_SARS-CoV-2_Motif_328],-0.515
19,GGGCUCAUACCC [IAV_invivo_HA_4_Motif_7+IAV_invivo_HA_4_Motif_7],0.721
20,GGGCUGUGACCACUGAAGUGGCAUUUGGCCU [IAV_invivo_M1_M2_7_Motif_9+IAV_invivo_M1_M2_7_Motif_9],-0.255
21,GGGGACGACCU [IAV_invivo_NA_6_Motif_17+IAV_invivo_NA_6_Motif_17],0.479
22,GGGGAUCUAUCAGAUUCUGGCGAUCUACUCAACUGUCGCCAGUUCACUGGUGCUUUUGGUCUCC [IAV_invivo_HA_4_Motif_19+IAV_invivo_HA_4_Motif_19],0.57

row,Sequence,pull-down binding Z-score
1,GGGGCCGGGGCCGGGGCCGGGGCCGGGGCCGGGGCC [G4_r(GGGGCC)8],4.47
2,GGGGCGUUUAUGCAACCC [IAV_invivo_PB1_2_Motif_33+IAV_invivo_PB1_2_Motif_33],-0.754
3,GGGGCUGAGAAACCAAAGUUUC [IAV_invivo_PA_3_Motif_3+IAV_invivo_PA_3_Motif_3],0.484
4,GGGGUGAAGAGGAUACUUACCUG [U1snRNP5ss-12],0.145
5,GGGGUGUACAUCAAUACUGCCUU [IAV_invivo_PA_3_Motif_19+IAV_invivo_PA_3_Motif_19],1.11
6,GGGUACGACUUUGAAAGGGAGGGAUACUCUCUAGUCGGAAUAGACCC [IAV_invivo_NP_5_Motif_16+IAV_invivo_NP_5_Motif_16],0.779
7,GGGUAGGGUUUGGGGGAGAGCGUGGGCUGGGGUUCAGGGACA [pre-miRNA-1229_WT_FL],7.43
8,GGGUAGGGUUUGGGGGAGAGUGUGGGCUGGGGUUCAGGGACA [pre-miRNA-1229_SNP_FL],6.68
9,GGGUAGUGGUGAGCAUUGACC [IAV_invivo_PB2_1_Motif_22+IAV_invivo_PB2_1_Motif_22],1.17
10,GGGUCGGUUGCUCACAAGUCCUGCCUGCCUGCCU [IAV_invivo_NP_5_Motif_15+IAV_invivo_NP_5_Motif_15],0.283
11,GGGUGGGUGGGUGGGUGGGUGGGU [G4_r(GGGU)6],9.01
12,GGGUGGGUGGGUGGGUGGGUGGGUGGGUGGGU [G4_r(GGGU)8],9.08
13,GGGUUGGGUUGGGUUGGGUUGGGUUGGGUU [G4_r(GGGUU)6],7.99
14,GGGUUGGGUUGGGUUGGGUUGGGUUGGGUUGGGUUGGGUU [G4_r(GGGUU)8],8.9
15,GGGUUUACAAACAAUUUGAUACUUAUAACCU [DMSMaPseq_invitro_SARS-CoV-2_Motif_347],-0.652
16,GGUAAAAUUGUUAAUAAUUGGUUGAAGCAGUUAAUUAAAGUUACACUUGUGUUCCUUUUUGUUGCUGCUAUUUUCUAUUUAAUAACACC [DMSMaPseq_invitro_SARS-CoV-2_Motif_156],-0.485
17,GGUAAUUAUACAGUUUCCUGUUUACC [DMSMaPseq_invitro_SARS-CoV-2_Motif_504],-0.536
18,GGUAAUUAUACAGUUUCCUGUUUACCUUUUACAAUUAAUUGCC [SHAPE_invitro_SARS-CoV-2_Motif_513],-0.718
19,GGUACAACAACUUACAAAUUAAAUGUUGGUGAUUAUUUUGUGCU [SHAPE_invivo_SARS-CoV-2_Motif_319],-0.537
20,GGUACAUUUACUUGUGCU [SHAPE_invivo_SARS-CoV-2_Motif_118],0.677
21,GGUACGUUAAUAGUUAAUAGCGUACUUCUUUUUCUUGCUUUCGUGGUAUUCUUGCUAGUUACACUAGCCAUCCUUACUGCGCUUCGAUUGUGUGCGUACU,0.654
22,GGUCAAAUCAAUGAUAUGAUUUUAUC,-0.859

row,Sequence,pull-down binding Z-score
1,GGUCAGAAUGAUC [IAV_invivo_NP_5_Motif_12+IAV_invivo_NP_5_Motif_12],-0.394
2,GGUCCAGAACAAACCCAAGGAAAUUUUGGGGACC,0.213
3,GGUCCAGCAACAGCUCAAAUGGCC [IAV_invivo_PB1_2_Motif_29+IAV_invivo_PB1_2_Motif_29],-0.414
4,GGUCUAUAUGCC [SHAPE_invivo_SARS-CoV-2_Motif_218],0.153
5,GGUCUCCGACGGAGGCC [IAV_invivo_PB1_2_Motif_32+IAV_invivo_PB1_2_Motif_32],0.0169
6,GGUCUGCAGGACU [IAV_invivo_PA_3_Motif_27+IAV_invivo_PA_3_Motif_27],0.0311
7,GGUGAAGGACGGGUCCAGUAGUUCGCUACUGUUGAGUAGAGUGUGAGCUCC [BabySpinach],1.09
8,GGUGACAACAACC [IAV_invivo_M1_M2_7_Motif_11+IAV_invivo_M1_M2_7_Motif_11],-0.283
9,GGUGCUCCCAAGAGGGAAGCU [IAV_invivo_NP_5_Motif_18+IAV_invivo_NP_5_Motif_18],-0.0194
10,GGUGGAAUUGGACGAUUCUACAUCCAAAUGUGCACC [IAV_invivo_NP_5_Motif_3+IAV_invivo_NP_5_Motif_3],-0.714
11,GGUGGCAAACCUUGUAUCAAAGUAGCCACU [SHAPE_invitro_SARS-CoV-2_Motif_216],-0.569
12,GGUGGUAUUGUAGCUAUCGUAGUAACAUGCCUUGCC,0.56
13,GGUGUGGAUGGCAUGCC [IAV_invivo_NP_5_Motif_17+IAV_invivo_NP_5_Motif_17],-0.0853
14,GGUGUUGCAGGAGCCUUAAAUAAGGCUACUAACAAUGCC [SHAPE_invivo_SARS-CoV-2_Motif_68],-0.697
15,GGUGUUGUUGGAGAAGGUUCCGAAGGUCUUAAUGACAACCUUCUUGAAAUACUCC,0.245
16,GGUGUUUAUUACC,-0.454
17,GGUGUUUUAACU,-0.133
18,GGUGUUUUAACUGCUGUGGUUAUACCUACUAAAAAGGCUGGUGGCACUACUGAAAUGCU,-0.83
19,GGUUAUAAGAAACC,-0.083
20,GGUUCAACUCUCCCUAGGAGGUCUGGAGCC [IAV_invivo_NP_5_Motif_11+IAV_invivo_NP_5_Motif_11],-0.418

# Source: the supplement of paper PMC11865577
